According to patent US20250011363A1, “OPTIMIZED SHORTENED PEPTIDE THAT BINDS TO ACETYLCHOLINE RECEPTOR, AND USE THEREOF” (SKINMED CO., LTD., priority 2021, published 2025):

Target: acetylcholine receptor (Homo sapiens, UniProt P02708)
Experiment: SPR binding affinity (RU) of optimized 5mer/6mer/7mer peptides, Examples 6-7
Conditions: SPR, Resonance Units; peptides tested at 10 μM; 6mer-2 Bottom sequence
Outline: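 600 peptides per series (5mer, 6mer-1, 6mer-2), made from high- or low-frequency amino acid combinations, are screened by SPR at 10 μM; binding is recorded in RU.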

Chain of acetylcholine receptor (P02708 21-457): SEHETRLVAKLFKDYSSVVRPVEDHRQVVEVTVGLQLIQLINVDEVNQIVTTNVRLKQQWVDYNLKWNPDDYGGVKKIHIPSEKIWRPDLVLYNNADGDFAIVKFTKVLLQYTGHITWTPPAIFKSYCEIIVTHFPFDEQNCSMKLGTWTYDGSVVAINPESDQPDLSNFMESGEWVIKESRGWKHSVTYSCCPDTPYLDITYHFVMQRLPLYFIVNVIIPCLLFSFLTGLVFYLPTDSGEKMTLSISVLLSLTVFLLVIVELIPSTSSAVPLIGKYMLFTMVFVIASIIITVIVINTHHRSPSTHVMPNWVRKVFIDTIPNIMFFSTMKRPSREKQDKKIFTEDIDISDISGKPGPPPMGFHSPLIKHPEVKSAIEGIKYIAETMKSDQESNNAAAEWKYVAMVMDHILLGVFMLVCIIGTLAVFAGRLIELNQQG

6mer-2-780 (KITIRK) showed a Binding affinity of 31 Ru.

Same assay, conditions: SPR, Resonance Units; peptides tested at 10 μM; 6mer-2 Top sequence

In order of falling Binding affinity:
1. 6mer-2-583 (KSVTKK)  154 Ru
2. 6mer-2-503 (KVQTKK)  154 Ru
3. 6mer-2-415 (KGRCKK)  149 Ru
4. 6mer-2-476 (KGIRKK)  148 Ru
5. 6mer-2-406 (KGIYRR)  139 Ru
6. 6mer-2-450 (RQRYRK)  123 Ru
7. 6mer-2-557 (KWVLRK)  123 Ru
8. 6mer-2-443 (RQYCRR)  122 Ru
9. 6mer-2-586 (RWLSRK)  121 Ru

Same assay, conditions: SPR, Resonance Units; peptides tested at 10 μM; 6mer-2 Top sequence (Table 12)

In order of falling Binding affinity:
1. 6mer-2-320 (RQYRRK)  148 Ru
2. 6mer-2-326 (RGFYKK)  142 Ru
3. 6mer-2-307 (RLRSKK)  141 Ru
4. 6mer-2-372 (KLVQRR)  141 Ru
5. 6mer-2-220 (KVYSKR)  135 Ru

Same assay, conditions: SPR, peptides at 10 μM; 6mer-2 Bottom sequence

In order of falling Binding affinity:
1. 6mer-2-1123 (RITARR)  36 Ru
2. 6mer-2-1114 (RKKFRK)  34 Ru
3. 6mer-2-1015 (RDEMKR)  29 Ru
4. 6mer-2-1130 (RHSFRK)  29 Ru
5. 6mer-2-1112 (RASWRK)  26 Ru
6. 6mer-2-1057 (RKKKKK)  25 Ru

Same assay, conditions: SPR, peptides tested at 10 μM; 5mer Top sequence

In order of rising Binding affinity:
1. 5mer-341 (RWYRR)  52 Ru
2. 5mer-91 (RQIQK)  55 Ru
3. 5mer-4 (KRFLR)  58 Ru
4. 5mer-350 (KSYYK)  59 Ru
5. 5mer-103 (RWFLK)  62 Ru
6. 5mer-19 (KRFQR)  72 Ru
7. 5mer-305 (KRICK)  72 Ru
8. 5mer-77 (KWRQK)  74 Ru
9. 5mer-64 (KVVTR)  76 Ru
10. 5mer-122 (RSYQK)  78 Ru
11. 5mer-496 (KGIQK)  81 Ru
12. 5mer-79 (RWFLR)  82 Ru
13. 5mer-114 (KRQRR)  82 Ru
14. 5mer-375 (KQLCR)  84 Ru
15. 5mer-420 (KLFCR)  84 Ru
16. 5mer-63 (RLLRK)  86 Ru

Same assay, conditions: SPR, peptides tested at 10 μM; 5mer Top sequence (top combinations)

In order of falling Binding affinity:
1. 5mer-542 (KRYTR)  85 Ru
2. 5mer-523 (KQFQK)  84 Ru
3. 5mer-293 (RQYYR)  83 Ru
4. 5mer-249 (RSYCR)  52 Ru
5. 5mer-514 (KLLLK)  52 Ru

Same assay, conditions: SPR, peptides tested at 10 μM; 6mer-1 Bottom sequence (Table 11)

In order of rising Binding affinity:
1. 6mer-1-890 (RRTSNK)  18 Ru
2. 6mer-1-848 (RKTMFK)  19 Ru
3. 6mer-1-867 (KRIPMR)  25 Ru
4. 6mer-1-825 (RKEKWK)  30 Ru
5. 6mer-1-959 (KKIWFR)  36 Ru
6. 6mer-1-914 (RRKCVR)  39 Ru
7. 6mer-1-943 (KKEHDK)  43 Ru
8. 6mer-1-958 (KRYAGR)  43 Ru
9. 6mer-1-957 (KKPPDK)  43 Ru

Same assay, conditions: SPR, peptides tested at 10 μM; 6mer-1 Top sequence

In order of rising Binding affinity:
1. 6mer-1-480 (KKQFYK)  121 Ru
2. 6mer-1-548 (RRVYSR)  123 Ru
3. 6mer-1-446 (RRVIRR)  124 Ru
4. 6mer-1-481 (KRWRCK)  133 Ru
5. 6mer-1-498 (RKRQQK)  139 Ru
6. 6mer-1-526 (KRGYTR)  148 Ru

Same assay, conditions: SPR, peptides tested at 10 μM; 6mer-1 Top sequence (top combinations)

In order of falling Binding affinity:
1. 6mer-1-9 (RKSFCK)  154 Ru
2. 6mer-1-77 (KKQLRR)  149 Ru
3. 6mer-1-123 (RRGVQK)  148 Ru
4. 6mer-1-181 (KKGVLR)  148 Ru
5. 6mer-1-144 (RKRYTR)  148 Ru
6. 6mer-1-89 (RKQRCK)  142 Ru
7. 6mer-1-97 (KKVYLR)  139 Ru
8. 6mer-1-42 (KKRIQR)  139 Ru

Same assay, conditions: SPR; XRRQRR-6mer and RRQRRX-6mer

In order of falling “Binding affinity, relative value to the RRQRR sequence” value:
1. 3636 (RRQRRK) [compound 3636]  175
2. 3605 (PRRQRR) [compound 3605]  133

Same assay, conditions: SPR; peptides tested at 10 μM; 5mer Bottom sequence

In order of rising Binding affinity:
1. 5mer-826 (KCKMK)  11 Ru
2. 5mer-818 (KHWHR)  12 Ru
3. 5mer-1171 (RCSWK)  21 Ru
4. 5mer-1161 (KCHDR)  21 Ru
5. 5mer-1157 (KTSHR)  21 Ru
6. 5mer-1133 (KCSMK)  23 Ru
7. 5mer-896 (RYHWR)  27 Ru
8. 5mer-884 (KIWEK)  28 Ru
9. 5mer-881 (RNDAK)  31 Ru
